Experimental data as given in US20100008928A1 (Takeda / Millennium, published 2010).

What was measured:
[1] = target: T1, cynomolgus monkey nectin-2 protein (cynomolgus monkey, UniProt Q92692 32-538 (human entry)); experiment: FCM
T1 construct: transient in CHO-K1; also called maNectin-2
T1 chain: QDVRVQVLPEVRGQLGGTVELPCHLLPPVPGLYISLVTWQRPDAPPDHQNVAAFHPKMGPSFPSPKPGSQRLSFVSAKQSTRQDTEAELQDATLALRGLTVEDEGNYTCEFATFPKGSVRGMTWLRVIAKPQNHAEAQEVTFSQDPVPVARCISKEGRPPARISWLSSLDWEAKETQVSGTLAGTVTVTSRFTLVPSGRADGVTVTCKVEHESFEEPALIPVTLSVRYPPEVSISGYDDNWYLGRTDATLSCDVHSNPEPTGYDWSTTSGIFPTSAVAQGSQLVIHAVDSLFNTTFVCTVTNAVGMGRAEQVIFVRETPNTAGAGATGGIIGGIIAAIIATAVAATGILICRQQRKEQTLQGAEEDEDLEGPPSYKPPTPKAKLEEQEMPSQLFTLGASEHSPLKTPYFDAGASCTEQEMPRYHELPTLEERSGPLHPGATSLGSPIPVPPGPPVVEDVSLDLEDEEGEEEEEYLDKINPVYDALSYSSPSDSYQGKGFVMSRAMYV
Description: (§1) Then, after 200 μL of FCM buffer was added to each well and washed once by centrifugal operation, 50 μL each of Alexa488-labeled secondary antibody diluted in FCM buffer to 10 μg/mL was added thereto for suspension, and the mixture was then reacted on ice for an hour. As secondary antibodies, Alexa Fluor488 goat anti-human IgG (H+L) was used for the human antibodies and Alexa Fluor488 goat anti-rabbit IgG (H+L) (Invitrogen) was used for the rabbit antibody, respectively. Next, the cells were washed twice with FCM buffer and then resuspended in 250 μL of FCM buffer.

[2] = target: T2, human nectin-2δ protein (human, UniProt Q92692 32-538); experiment: FCM
T2 sequence: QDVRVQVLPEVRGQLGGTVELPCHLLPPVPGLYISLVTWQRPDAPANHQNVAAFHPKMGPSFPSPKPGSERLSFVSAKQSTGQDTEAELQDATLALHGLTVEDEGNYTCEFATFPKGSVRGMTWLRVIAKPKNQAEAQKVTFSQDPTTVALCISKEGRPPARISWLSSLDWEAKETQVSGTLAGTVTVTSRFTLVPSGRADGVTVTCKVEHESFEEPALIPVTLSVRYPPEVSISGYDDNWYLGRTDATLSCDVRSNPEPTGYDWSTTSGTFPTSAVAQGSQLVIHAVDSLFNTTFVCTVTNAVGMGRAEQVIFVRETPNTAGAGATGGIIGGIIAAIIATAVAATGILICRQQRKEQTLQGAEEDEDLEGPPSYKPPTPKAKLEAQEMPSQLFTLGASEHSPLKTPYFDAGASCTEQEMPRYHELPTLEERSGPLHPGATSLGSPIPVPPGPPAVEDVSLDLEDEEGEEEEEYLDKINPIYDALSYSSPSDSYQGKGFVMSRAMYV
Description: as §1

[3] = target: T3, nectin-2 Ig1 domain-deficient protein (human, UniProt Q92692 32-538); experiment: FCM
T3 construct: transient in CHO-K1; also called delta-Ig1; Nectin-2ΔIg1
T3 sequence: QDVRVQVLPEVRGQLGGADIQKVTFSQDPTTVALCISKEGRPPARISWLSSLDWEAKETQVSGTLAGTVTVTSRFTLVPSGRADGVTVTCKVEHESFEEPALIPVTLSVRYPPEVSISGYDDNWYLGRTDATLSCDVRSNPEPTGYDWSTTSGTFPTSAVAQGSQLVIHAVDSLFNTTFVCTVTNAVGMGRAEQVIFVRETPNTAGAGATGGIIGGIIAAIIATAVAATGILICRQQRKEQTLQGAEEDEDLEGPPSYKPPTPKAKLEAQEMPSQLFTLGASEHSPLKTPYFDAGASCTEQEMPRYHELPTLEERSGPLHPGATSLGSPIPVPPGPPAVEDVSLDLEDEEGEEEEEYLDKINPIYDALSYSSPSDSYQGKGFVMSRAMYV
Description: (§2) After 200 μL of FCM buffer was added to each well and washed once by centrifugal operation, 50 μL each of Alexa488-labeled secondary antibody diluted in FCM buffer to 10 μg/mL was added to and mixed therewith, and the mixture was then reacted on ice for an hour. The Alexa488-labeled secondary antibody used was Alexa Fluor488 goat anti-human IgG (H+L) for the human antibodies and Alexa Fluor488 goat anti-rabbit IgG (H+L) (Invitrogen) for the rabbit antibody. The cells in each well were washed twice with FCM buffer and then resuspended in 250 μL of FCM buffer. Using the flow cytometer MPL500 (BECKMAN COULTER), the fluorescence intensity of stained cells was measured to determine the ratio of the median value of fluorescence intensities of the respective antibodies in the primary antibody group to the median value of fluorescence intensities in the negative control group.

[4] = target: T4, nectin-2 Ig2 domain-deficient protein (human, UniProt Q92692 32-538); experiment: FCM
T4 construct: transient in CHO-K1; also called delta-Ig2; Nectin-2ΔIg2
T4 sequence: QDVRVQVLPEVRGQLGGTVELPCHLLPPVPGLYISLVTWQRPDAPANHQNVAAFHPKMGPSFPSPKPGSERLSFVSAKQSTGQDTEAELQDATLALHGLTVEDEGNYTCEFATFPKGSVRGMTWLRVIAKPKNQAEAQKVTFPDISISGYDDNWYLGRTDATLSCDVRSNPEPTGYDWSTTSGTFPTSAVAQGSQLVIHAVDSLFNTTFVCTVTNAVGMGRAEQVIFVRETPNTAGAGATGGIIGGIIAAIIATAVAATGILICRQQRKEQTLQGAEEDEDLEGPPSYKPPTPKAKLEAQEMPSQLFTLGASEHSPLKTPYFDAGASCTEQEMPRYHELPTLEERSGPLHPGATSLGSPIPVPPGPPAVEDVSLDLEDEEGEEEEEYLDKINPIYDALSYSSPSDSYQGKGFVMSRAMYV
Description: as §2

[5] = target: T2, human nectin-2δ protein; experiment: Cell ELISA
Description: In other words, the CHO cell line (#43-2) stably expressing nectin-2δ and the mock-CHO cell line were incubated in a 96-well tissue culture plate charged with GS-selection DMEM medium supplemented with 10% dialyzed FBS and GS supplement. After the culture supernatant of the plate where each cell line became confluent was removed by aspiration, 200 μL/well of PBS(+) supplemented with 2% FBS was added thereto and incubated on ice in the dark for an hour. After the supernatant of each well was removed by aspiration, 50 μL each/well of the hybridoma culture supernatant was added and reacted on ice in the dark for 2 hours. After this plate was washed once with PBS(+) chilled at 4° C., anti-human IgG (H+L) chain specific (GOAT) peroxidase conjugate (CALBIOCHEM) diluted to 3,000-fold with PBS(+) supplemented with 2% FBS was added by 100 μL each/well and reacted on ice in the dark for 2 hours. […] Absorbance (450 nm) of each well was measured using a plate reader (Multiskan BICHROMATIC; Thermo Electron Co.), and those showing absorbance of 0.5 or more in the nectin-2 expression CHO cell line plate and showing absorbance of less than 0.3 in the mock-CHO cell line plate were judged to be positive wells. […]

[6] = target: T5, human nectin-2δ AN77-78PD (human, UniProt Q92692 32-538); experiment: FCM
T5 construct: transient in CHO-K1; also called Nectin-2 (AN77-78PD)
T5 sequence: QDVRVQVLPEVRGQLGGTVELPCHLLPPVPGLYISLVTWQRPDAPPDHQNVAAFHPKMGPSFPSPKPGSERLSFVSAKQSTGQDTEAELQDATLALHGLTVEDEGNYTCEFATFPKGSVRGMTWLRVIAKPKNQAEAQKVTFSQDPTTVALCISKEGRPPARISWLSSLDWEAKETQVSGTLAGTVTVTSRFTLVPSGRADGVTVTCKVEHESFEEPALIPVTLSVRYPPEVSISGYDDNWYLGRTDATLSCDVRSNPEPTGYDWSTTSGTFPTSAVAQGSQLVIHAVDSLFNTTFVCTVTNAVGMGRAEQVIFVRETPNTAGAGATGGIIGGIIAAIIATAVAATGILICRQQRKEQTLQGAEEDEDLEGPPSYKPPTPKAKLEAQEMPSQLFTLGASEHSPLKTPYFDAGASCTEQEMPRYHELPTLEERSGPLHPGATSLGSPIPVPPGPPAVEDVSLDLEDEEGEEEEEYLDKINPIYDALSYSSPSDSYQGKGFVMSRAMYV
Description: (§3) Then, after 200 μL of FCM buffer was added to each well and washed once by centrifugal operation, 50 μL of Alexa Fluor488 goat anti-human IgG (H+L) diluted in FCM buffer to 10 μg/mL was added thereto for suspension, and the mixture was then reacted on ice for an hour. Next, the cells were washed twice with FCM buffer and resuspended in 250 μL of FCM buffer. Using flow cytometer MPL500 (BECKMAN COULTER), the fluorescence intensities of stained cells were measured, respectively.

[7] = target: T6, human nectin-2δ H128R (human, UniProt Q92692 32-538); experiment: FCM
T6 construct: transient in CHO-K1; also called Nectin-2 (H128R)
T6 sequence: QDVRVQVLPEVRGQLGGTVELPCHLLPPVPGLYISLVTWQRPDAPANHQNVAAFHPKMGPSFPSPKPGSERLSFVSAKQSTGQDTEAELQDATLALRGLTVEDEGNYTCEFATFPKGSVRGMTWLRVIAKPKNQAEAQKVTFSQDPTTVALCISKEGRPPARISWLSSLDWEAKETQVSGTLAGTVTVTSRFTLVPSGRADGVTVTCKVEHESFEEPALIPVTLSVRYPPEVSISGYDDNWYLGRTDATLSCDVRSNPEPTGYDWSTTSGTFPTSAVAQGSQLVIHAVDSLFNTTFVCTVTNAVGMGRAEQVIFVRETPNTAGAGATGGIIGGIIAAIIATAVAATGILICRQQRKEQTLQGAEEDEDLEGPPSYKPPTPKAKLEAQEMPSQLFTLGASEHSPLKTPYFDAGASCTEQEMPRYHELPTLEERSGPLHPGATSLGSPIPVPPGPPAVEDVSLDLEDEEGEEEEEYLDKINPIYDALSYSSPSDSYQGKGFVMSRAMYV
Description: as §3

[8] = target: T7, human nectin-2δ G113R (human, UniProt Q92692 32-538); experiment: FCM
T7 construct: transient in CHO-K1; also called Nectin-2 (G113R)
T7 sequence: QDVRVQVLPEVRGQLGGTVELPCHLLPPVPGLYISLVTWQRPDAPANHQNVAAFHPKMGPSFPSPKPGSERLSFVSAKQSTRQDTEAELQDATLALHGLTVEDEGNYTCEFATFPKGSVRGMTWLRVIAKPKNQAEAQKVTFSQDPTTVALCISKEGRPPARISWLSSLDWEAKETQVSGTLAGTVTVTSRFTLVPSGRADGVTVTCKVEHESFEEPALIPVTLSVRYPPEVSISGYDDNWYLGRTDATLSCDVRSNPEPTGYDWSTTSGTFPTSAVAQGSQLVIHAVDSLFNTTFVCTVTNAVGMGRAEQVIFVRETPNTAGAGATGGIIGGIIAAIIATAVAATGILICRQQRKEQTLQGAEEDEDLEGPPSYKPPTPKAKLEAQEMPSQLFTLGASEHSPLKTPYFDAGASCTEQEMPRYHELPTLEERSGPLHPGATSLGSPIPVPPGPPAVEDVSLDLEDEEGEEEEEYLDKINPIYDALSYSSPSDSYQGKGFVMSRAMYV
Description: as §3

median fluorescence ratio [1]: 14.8
median fluorescence ratio [2]: 43
median fluorescence ratio [3]: 3.6
EC50 [5]: 1.11 nM
median fluorescence ratio [6]: 44.2
median fluorescence ratio [7]: 51.5
median fluorescence ratio [8]: 38.7
B1: Nec1-554-1 (antibody, human IgG1, V domains shown)
VH: EVQLVESGGGLVKPGGSLRLSCAASGFTFSSYNMNWVRQAPGKGLEWVSSISSSSSYIYYADSVKGRFTISRDNAKNSLYLQMNSLRAEDTAVYYCARDYYGSGTYYLFDYWGQGTLVTVSS
VL: EIVLTQSPDFQSVTPKEKVTITCRASQSIGSSLHWYQQKPDQSPKLLIKYASQSFSGVPSRFSGSGSGTDFTLTINSLEAEDAAAYYCHQSRSLPITFGQGTRLEIK
notes: human IgG1/k from hybridoma FERM BP-10681
binding result [4]: no binding (tested: ratio <2 = no reactivity; 6 µg/mL)
